# Article PMC4834570
# Target: A1-tagged Gal-1 (galectin-1) (UniProt P09382)
# Experiment: FRET or BRET; in vitro sensitized acceptor emission FRET titration; 100 nM ATTO-488-labelled Gal-1 titrated with 100 nM to 1000 nM DY-547-labelled C-Raf-RBD; 25 mM HEPES, 100 mM NaCl, 3 mM MgCl2, 3 mM DTT, pH 7.2
substance,measurement,value
A1-tagged C-Raf-RBD (from UniProt P04049 56-131) (domain or fragment),Kd,106 nM
